From patent US20250109210A1 (ABSCI, published 2025)

Experiments:
TL1A [1] = molecular target: T1, TL1A (UniProt O95150 72-251, limits assumed); assay: selectivity ELISA: antibody pre-incubated with TL1A, inhibition of TL1A binding to plate-coated DR3
T1 construct: also called TNFSF15
T1 sequence (looked up): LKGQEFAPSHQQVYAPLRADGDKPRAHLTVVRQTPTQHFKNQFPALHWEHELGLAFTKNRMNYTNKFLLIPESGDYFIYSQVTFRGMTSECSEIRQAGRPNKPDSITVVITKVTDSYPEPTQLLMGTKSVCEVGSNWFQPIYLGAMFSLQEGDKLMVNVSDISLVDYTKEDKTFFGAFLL

TL1A [2] = molecular target: T1, TL1A; assay: selectivity ELISA: antibody pre-incubated with TL1A, inhibition of TL1A binding to plate-coated DcR3

IC50 (TL1A [1]): 6.3 µg/mL
IC50 (TL1A [2]): 3.6 µg/mL
B1: MK-7240 (antibody, V domains shown)
VH: QVQLVQSGAEVKKPGASVKVSCKASGFDIQDTYMHWVKQRPGQGLEWMGRIDPASGHTKYDPKFQVRVTITRDTSTSTVYLELSSLRSEDTAVYYCARSGGLPDVWGQGTTVTVSS
VL: EIVLTQSPGTLSLSPGERATLSCRASSSVSYMYWYQQKPGQAPRPLIYATSNLASGIPDRFSGSGSGTDFTLTISRLEPEDFAVYYCQQWEGNPRTFGGGTKLEIK
